Experimental data published in publication PMC5967604.

Experiments:
[1] = molecular target: OSM-3G444E^Halo (C. elegans) (UniProt P46873); assay: single-molecule colocalisation of differentially labelled proteins
[2] = molecular target: OSM-3^SNAP (C. elegans) (UniProt P46873); assay: as above

Substance “QCC with GFP-tagged IFT-52(OSM-6), G5EDF6 1-472; Q0G838 1-471; G5ED37 1-820; Q8I7G4 1-656” has a colocalisation efficiency [1] of 85% and a colocalisation efficiency [2] of 81%.
